In article PMC11574045, “A cofactor-induced repressive type of transcription factor condensation can be induced by synthetic peptides to suppress tumorigenesis” (The EMBO Journal, 2024):

Test system: HEK293FT cells transfected with TF library
Test: Screening of TF condensates based on fluorescent puncta
Format: cell-based
Settings: Figure 1B numerical data; TF library screen, one value per transcriptional factor
Summary of the method: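 HEK293FT cells were reverse-transfected with Flag- or GAL4-tagged TF plasmids (1.6 μg/ml, PEI). After 60 h, cells were cultured 12 h with or without glucose, then fixed and immunostained with anti-Flag or anti-GAL4 and Alexa 488 secondaries. Fluorescent puncta were imaged over fifty random fields per well by high-content imaging.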

Molecule	Z score of condensed fraction
ZNF484 (protein, UniProt Q5JVG2 1-852, looked up) Zinc finger protein 484: MTKSLESVSFKDVTVDFSRDEWQQLDLAQKSLYREVMLENYFNLISVGCQVPKPEVIFSLEQEEPCMLDGEIPSQSRPDGDIGFGPLQQRMSEEVSFQSEININLFTRDDPYSILEELWKDDEHTRKCGENQNKPLSRVVFINKKTLANDSIFEYKDIGEIVHVNTHLVSSRKRPHNCNSCGKNLEPIITLYNRNNATENSDKTIGDGDIFTHLNSHTEVTACECNQCGKPLHHKQALIQQQKIHTRESLYLFSDYVNVFSPKSHAFAHESICAEEKQHECHECEAVFTQKSQLDGSQRVYAGICTEYEKDFSLKSNRQKTPYEGNYYKCSDYGRAFIQKSDLFRCQRIHSGEKPYEYSECEKNLPQNSNLNIHKKIHTGGKHFECTECGKAFTRKSTLSMHQKIHTGEKPYVCTECGKAFIRKSHFITHERIHTGEKPYECSDCGKSFIKKSQLHVHQRIHTGENPFICSECGKVFTHKTNLIIHQKIHTGERPYICTVCGKAFTDRSNLIKHQKIHTGEKPYKCSDCGKSFTWKSRLRIHQKCHTGERHYECSECGKAFIQKSTLSMHQRIHRGEKPYVCTECGKAFFHKSHFITHERIHTGEKPYECSICGKSFTKKSQLHVHQQIHTGEKPYRCAECGKAFTDRSNLFTHQKIHTGEKPYKCSDCGKAFTRKSGLHIHQQSHTGERHYECSECGKAFARKSTLIMHQRIHTGEKPYICNECGKSFIQKSHLNRHRRIHTGEKPYECSDCGKSFIKKSQLHEHHRIHTGEKPYICAECGKAFTIRSNLIKHQKIHTKQKPYKCSDLGKALNWKPQLSMPQKSDNGEVECSMPQLWCGDSEGDQGQLSSI	-0.5495
CBX2 (protein, UniProt Q14781 1-532, looked up) Chromobox protein homolog 2: MEELSSVGEQVFAAECILSKRLRKGKLEYLVKWRGWSSKHNSWEPEENILDPRLLLAFQKKEHEKEVQNRKRGKRPRGRPRKLTAMSSCSRRSKLKEPDAPSKSKSSSSSSSSTSSSSSSDEEDDSDLDAKRGPRGRETHPVPQKKAQILVAKPELKDPIRKKRGRKPLPPEQKATRRPVSLAKVLKTARKDLGAPASKLPPPLSAPVAGLAALKAHAKEACGGPSAMATPENLASLMKGMASSPGRGGISWQSSIVHYMNRMTQSQAQAASRLALKAQATNKCGLGLDLKVRTQKGELGMSPPGSKIPKAPSGGAVEQKVGNTGGPPHTHGASRVPAGCPGPQPAPTQELSLQVLDLQSVKNGMPGVGLLARHATATKGVPATNPAPGKGTGSGLIGASGATMPTDTSKSEKLASRAVAPPTPASKRDCVKGSATPSGQESRTAPGEARKAATLPEMSAGEESSSSDSDPDSASPPSTGQNPSVSVQTSQDWKPTRSLIEHVFVTDVTANLITVTVKESPTSVGFFNLRHY	1.201
ZNF19 (protein, UniProt P17023 1-458, looked up) Zinc finger protein 19: MAAMPLKAQYQEMVTFEDVAVHFTKTEWTGLSPAQRALYRSVMLENFGNLTALGYPVPKPALISLLERGDMAWGLEAQDDPPAERTKNVCKDVETNIDSESTLIQGISEERDGMMSHGQLKSVPQRTDFPETRNVEKHQDIPTVKNIQGKVPRIPCARKPFICEECGKSFSYFSYYARHQRIHTGEKPFECSECGKAFNGNSSLIRHQRIHTGERPYQCEECGRAFNDNANLIRHQRIHSGDRPYYCTECGNSFTSSSEFVIHQRIHTGEKPYECNECGKAFVGNSPLLRHQKIHTGEKPYECNECGKSFGRTSHLSQHQRIHTGEKPYSCKVCGQAFNFHTKLTRHQRIHSEEKPFDCVDCGKAFSAQEQLKRHLRIHTQESSYVCDECGKALTSKRNLHQHQRIHTGEKPYECSKYEKAFGTSSQLGHLEHVYSGEKPVLDICRFGLPEFFTPFYW	-0.9415
ZNF41 (protein, UniProt P51814 1-821, looked up) Zinc finger protein 41: MAANGDSPPWSPALAAEGRGSSCEVRRERTPEARIHSVKRYPDLSPGPKGRSSADHAALNSIVSLQASVSFEDVTVDFSKEEWQHLDPAQRRLYWDVTLENYSHLLSVGYQIPKSEAAFKLEQGEGPWMLEGEAPHQSCSGEAIGKMQQQGIPGGIFFHCERFDQPIGEDSLCSILEELWQDNDQLEQRQENQNNLLSHVKVLIKERGYEHKNIEKIIHVTTKLVPSIKRLHNCDTILKHTLNSHNHNRNSATKNLGKIFGNGNNFPHSPSSTKNENAKTGANSCEHDHYEKHLSHKQAPTHHQKIHPEEKLYVCTECVMGFTQKSHLFEHQRIHAGEKSRECDKSNKVFPQKPQVDVHPSVYTGEKPYLCTQCGKVFTLKSNLITHQKIHTGQKPYKCSECGKAFFQRSDLFRHLRIHTGEKPYECSECGKGFSQNSDLSIHQKTHTGEKHYECNECGKAFTRKSALRMHQRIHTGEKPYVCADCGKAFIQKSHFNTHQRIHTGEKPYECSDCGKSFTKKSQLHVHQRIHTGEKPYICTECGKVFTHRTNLTTHQKTHTGEKPYMCAECGKAFTDQSNLIKHQKTHTGEKPYKCNGCGKAFIWKSRLKIHQKSHIGERHYECKDCGKAFIQKSTLSVHQRIHTGEKPYVCPECGKAFIQKSHFIAHHRIHTGEKPYECSDCGKCFTKKSQLRVHQKIHTGEKPNICAECGKAFTDRSNLITHQKIHTREKPYECGDCGKTFTWKSRLNIHQKSHTGERHYECSKCGKAFIQKATLSMHQIIHTGKKPYACTECQKAFTDRSNLIKHQKMHSGEKRYKASD	-0.7537
CCNC (protein, UniProt P24863 1-283, looked up) Cyclin-C: MAGNFWQSSHYLQWILDKQDLLKERQKDLKFLSEEEYWKLQIFFTNVIQALGEHLKLRQQVIATATVYFKRFYARYSLKSIDPVLMAPTCVFLASKVEEFGVVSNTRLIAAATSVLKTRFSYAFPKEFPYRMNHILECEFYLLELMDCCLIVYHPYRPLLQYVQDMGQEDMLLPLAWRIVNDTYRTDLCLLYPPFMIALACLHVACVVQQKDARQWFAELSVDMEKILEIIRVILKLYEQWKNFDERKEMATILSKMPKPKPPPNSEGEQGPNGSQNSSYSQS	-0.5132
ZNF213 (protein, UniProt O14771 1-459, looked up) Zinc finger protein 213: MAAPLEAQDQAPGEGEGLLIVKVEDSSWEQESAQHEDGRDSEACRQRFRQFCYGDVHGPHEAFSQLWELCCRWLRPELRTKEQILELLVLEQFLTVLPGEIQGWVREQHPGSGEEAVALVEDLQKQPVKAWRQDVPSEEAEPEAAGRGSQATGPPPTVGARRRPSVPQEQHSHSAQPPALLKEGRPGETTDTCFVSGVHGPVALGDIPFYFSREEWGTLDPAQRDLFWDIKRENSRNTTLGFGLKGQSEKSLLQEMVPVVPGQTGSDVTVSWSPEEAEAWESENRPRAALGPVVGARRGRPPTRRRQFRDLAAEKPHSCGQCGKRFRWGSDLARHQRTHTGEKPHKCPECDKSFRSSSDLVRHQGVHTGEKPFSCSECGKSFSRSAYLADHQRIHTGEKPFGCSDCGKSFSLRSYLLDHRRVHTGERPFGCGECDKSFKQRAHLIAHQSLHAKMAQPVG	-0.4697
ZNF473 (protein, UniProt Q8WTR7 1-871, looked up) Zinc finger protein 473: MAEEFVTLKDVGMDFTLGDWEQLGLEQGDTFWDTALDNCQDLFLLDPPRPNLTSHPDGSEDLEPLAGGSPEATSPDVTETKNSPLMEDFFEEGFSQEIIEMLSKDGFWNSNFGEACIEDTWLDSLLGDPESLLRSDIATNGESPTECKSHELKRGLSPVSTVSTGEDSMVHNVSEKTLTPAKSKEYRGEFFSYSDHSQQDSVQEGEKPYQCSECGKSFSGSYRLTQHWITHTREKPTVHQECEQGFDRNASLSVYPKTHTGYKFYVCNEYGTTFSQSTYLWHQKTHTGEKPCKSQDSDHPPSHDTQPGEHQKTHTDSKSYNCNECGKAFTRIFHLTRHQKIHTRKRYECSKCQATFNLRKHLIQHQKTHAAKTTSECQECGKIFRHSSLLIEHQALHAGEEPYKCNERGKSFRHNSTLKIHQRVHSGEKPYKCSECGKAFHRHTHLNEHRRIHTGYRPHKCQECVRSFSRPSHLMRHQAIHTAEKPYSCAECKETFSDNNRLVQHQKMHTVKTPYECQECGERFICGSTLKCHESVHAREKQGFFVSGKILDQNPEQKEKCFKCNKCEKTFSCSKYLTQHERIHTRGVKPFECDQCGKAFGQSTRLIHHQRIHSRVRLYKWGEQGKAISSASLIKLQSFHTKEHPFKCNECGKTFSHSAHLSKHQLIHAGENPFKCSKCDRVFTQRNYLVQHERTHARKKPLVCNECGKTFRQSSCLSKHQRIHSGEKPYVCDYCGKAFGLSAELVRHQRIHTGEKPYVCQECGKAFTQSSCLSIHRRVHTGEKPYRCGECGKAFAQKANLTQHQRIHTGEKPYSCNVCGKAFVLSAHLNQHLRVHTQETLYQCQRCQKAFRCHSSLSRHQRVHNKQQYCL	-0.9289
ZNF483 (protein, UniProt Q8TF39 1-744, looked up) Zinc finger protein 483: MQAVVPLNKMTAISPEPQTLASTEQNEVPRVVTSGEQEAILRGNAADAESFRQRFRWFCYSEVAGPRKALSQLWELCNQWLRPDIHTKEQILELLVFEQFLTILPGEIRIWVKSQHPESSEEVVTLIEDLTQMLEEKDPVSQDSTVSQEENSKEDKMVTVCPNTESCESITLKDVAVNFSRGEWKKLEPFQKELYKEVLLENLRNLEFLDFPVSKLELISQLKWVELPWLLEEVSKSSRLDESALDKIIERCLRDDDHGLMEESQQYCGSSEEDHGNQGNSKGRVAQNKTLGSGSRGKKFDPDKSPFGHNFKETSDLIKHLRVYLRKKSRRYNESKKPFSFHSDLVLNRKEKTAGEKSRKSNDGGKVLSHSSALTEHQKRQKIHLGDRSQKCSKCGIIFIRRSTLSRRKTPMCEKCRKDSCQEAALNKDEGNESGEKTHKCSKCGKAFGYSASLTKHRRIHTGEKPYMCNECGKAFSDSSSLTPHHRTHSGEKPFKCDDCGKGFTLSAHLIKHQRIHTGEKPYKCKDCGRPFSDSSSLIQHQRIHTGEKPYTCSNCGKSFSHSSSLSKHQRIHTGEKPYKCGECGKAFRQNSCLTRHQRIHTGEKPYLCNDCGMTFSHFTSVIYHQRLHSGEKPYKCNQCEKAFPTHSLLSRHQRIHTGVKPYKCKECGKSFSQSSSLNEHHRIHTGEKPYECNYCGATFSRSSILVEHLKIHTGRREYECNECEKTFKSNSGLIRHRGFHSAE	2.279
ZNF250 (protein, UniProt P15622 1-560, looked up) Zinc finger protein 250: MAAARLLPVPAGPQPLSFQAKLTFEDVAVLLSQDEWDRLCPAQRGLYRNVMMETYGNVVSLGLPGSKPDIISQLERGEDPWVLDRKGAKKSQGLWSDYSDNLKYDHTTACTQQDSLSCPWECETKGESQNTDLSPKPLISEQTVILGKTPLGRIDQENNETKQSFCLSPNSVDHREVQVLSQSMPLTPHQAVPSGERPYMCVECGKCFGRSSHLLQHQRIHTGEKPYVCSVCGKAFSQSSVLSKHRRIHTGEKPYECNECGKAFRVSSDLAQHHKIHTGEKPHECLECRKAFTQLSHLIQHQRIHTGERPYVCPLCGKAFNHSTVLRSHQRVHTGEKPHRCNECGKTFSVKRTLLQHQRIHTGEKPYTCSECGKAFSDRSVLIQHHNVHTGEKPYECSECGKTFSHRSTLMNHERIHTEEKPYACYECGKAFVQHSHLIQHQRVHTGEKPYVCGECGHAFSARRSLIQHERIHTGEKPFQCTECGKAFSLKATLIVHLRTHTGEKPYECNSCGKAFSQYSVLIQHQRIHTGEKPYECGECGRAFNQHGHLIQHQKVHRKL	-1.178
